Legend:
EV71-C 3Dpol WT [1] = target: T1, EV71-C 3Dpol WT (Enterovirus 71 strain …, UniProt M4QLY4 1732-2193); assay: fluorescence polarization; 5 mM Mg2+; FP: 50 mM potassium glutamate pH 7.5, 50 mM arginine, 5 mM DTT, 5 mM MgCl2, 30 mM NaCl, 5% glycerol, 25 nM RNA, room temperature, at least 60 min. EC assembly:
EV71-C 3Dpol WT [2] = target: T1, EV71-C 3Dpol WT; assay: crystal structure; ddCTP-soaked elongation complex; FP: 50 mM potassium glutamate pH 7.5, 50 mM arginine, 5 mM DTT, 5 mM MgCl2, 30 mM NaCl, 5% glycerol, 25 nM RNA, room temperature, at least 60 min. EC assembly:
EV71-C 3Dpol WT [3] = target: T1, EV71-C 3Dpol WT; assay: crystal structure (1.8 A); five Mg2+; elongation complex; FP: 50 mM potassium glutamate pH 7.5, 50 mM arginine, 5 mM DTT, 5 mM MgCl2, 30 mM NaCl, 5% glycerol, 25 nM RNA, room temperature, at least 60 min. EC assembly:

B1: T31/P8F (structured_RNA)
RNA 1: GGGAGAUGAAAGUCUCCAGGUCUCUCGGAAA
RNA 2: UGUUCCGA
Q: Which Kd (EV71-C 3Dpol WT [1]) does the source give for B1 here?
A: The Kd was 0.18 µM.

B2: T31/P12 + ddCMP (structured_RNA)
RNA 1: B1 RNA 1
RNA 2: UGUUCCGAGAGAC
modifications: 3'-terminal 2',3'-dideoxy-C on product strand
Q: Does B2 bind (EV71-C 3Dpol WT [2])?
A: Result: binds

B3: T31/P12 (T31/P8 after GAGA incorporation) (structured_RNA)
RNA 1: B1 RNA 1
RNA 2: UGUUCCGAGAGA
Q: Does B3 bind (EV71-C 3Dpol WT [3])?
A: Result: binds

— publication PMC7026628
